Changes are numbered by the printed parent chain. One block for each binder: values may come before it.
Assays:
[1] = target: T1, recombinant prostate-specific antigen (PSA) (human, UniProt P07288 25-261, limits assumed); test: ELISA of the protein G purified antibody on recombinant PSA
T1 construct: also called recombinant PSA; recombinantly produced PSA

[2] = target: T1, recombinant prostate-specific antigen …; test: immunoprecipitation with protein G after incubation with recombinant PSA; blot developed with a commercial anti-PSA antibody
Method: (§1) FIGS. 4A-E present anti-PSA clone 10 humanization: FIG. 4A. Four anti-PSA antibodies were expressed as chimeras and expression was measured through ELISA of the supernatant SEQ ID Nos.: 83/84, 85/86, 87/88, 81/82). […] FIG. 4B. Expression of five humanized designs for clone 10 was measured through ELISA of the supernatant. […] FIG. 4C. […] FIG. 4D. […] Membrane was developed with a commercial anti-PSA antibody. […] FIG. 4E.

[3] = target: T2, natively expressed PSA (supernatant of LNCaP cells) (human, UniProt P07288 25-261); test: immunoprecipitation with protein G after overnight incubation with LNCaP supernatant; blot developed with a commercial anti-PSA antibody
T2 construct: also called native PSA
Method: as §1

[4] = target: T3, hen-egg white lysozyme (hen, UniProt P00698 19-147); test: yeast surface display of scFv, 240 nM lysozyme
T3 construct: also called HEWL

[5] = target: T3, hen-egg white lysozyme; test: bilayer interferometry, IgG1 loaded on the sensor at 1 ug/mL, lysozyme at 1000, 250, 100, 25 and 10 nM
Method: FIGS. 5A-D present anti lysozyme antibody SDR-grafting: FIG. 5A. […] FIG. 5B. […] FIG. 5C. […] FIG. 5D. […] Lysozyme was at concentrations of […] and 1 μg/mL antibody was loaded onto the sensor.

[6] = target: T3, hen-egg white lysozyme; test: surface plasmon resonance, Fab

T3 sequence (P00698 19-147 limits assumed): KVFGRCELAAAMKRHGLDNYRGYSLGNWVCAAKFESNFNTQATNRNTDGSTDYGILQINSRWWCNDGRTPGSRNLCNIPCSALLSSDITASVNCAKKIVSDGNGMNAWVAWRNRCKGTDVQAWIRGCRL
T1 sequence (P07288 25-261 limits assumed): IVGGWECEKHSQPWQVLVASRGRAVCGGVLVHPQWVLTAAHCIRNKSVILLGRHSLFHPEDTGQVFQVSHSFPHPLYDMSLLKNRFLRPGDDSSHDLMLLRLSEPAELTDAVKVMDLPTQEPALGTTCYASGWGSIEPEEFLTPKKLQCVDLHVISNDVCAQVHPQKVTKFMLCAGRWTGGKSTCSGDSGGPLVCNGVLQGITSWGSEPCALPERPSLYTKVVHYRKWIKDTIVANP
T2 sequence (P07288 25-261 limits assumed): as above

- binding result [1]: binds
B1: Anti-PSA Design 1 (humanized clone 10) (antibody, V domains shown)
VH: QVQLVQSGAEVKKPGSSVKVSCKASGYSFTDYNMNWVRQAPGQGLEWIGVISPDYGTPSYAQKFQGRVTITADESTSTAYMELSSLRSEDTAVYYCARGKGNYVVFAYWGQGTLVTVSS
VL: DIQMTQSPSSLSASVGDRVTITCKASQSVVNNVVWYQQKPGKAPKLLIYYASNRYSGVPSRFSGSGSGTDFTLTISSLQPEDFATYYCQQHYTSPLTFGPGTKVDIKR
notes: Full-length human IgG1/kappa chains; also called PSA1

- binding result [1]: binds
B2: Anti-PSA Design 2 (humanized clone 10) (antibody, V domains shown)
VH: B1 VH
VL: DIVMTQTPLSLSVTPGQPASISCKASQSVVNNVVWYLQKPGQPPQLLIYYASNRYSGVPDRFSGSGSGTDFTLKISRVEAEDVGVYYCQQHYTSPLTFGPGTKVDIKR
notes: Full-length human IgG1/kappa chains; also called PSA2

- binding result [2]: binds
- binding result [3]: binds
B3: Anti-PSA Design 4 (humanized clone 10) (antibody, V domains shown)
VH: QVQLQESGPGLVKPSETLSLTCTVSGYSFTDYNMNWIRQPPGKGLEWIGVISPDYGTPSYNPSLKSRVTISVDTSKNQFSLKLSSVTAADTAVYYCARGKGNYVVFAYWGQGTLVTVSS
VL: B1 VL with D70E
notes: Full-length human IgG1/kappa chains; also called PSA4

- binding result [1]: binds
B4: Anti-PSA Design 3 (humanized clone 10) (antibody, V domains shown)
VH: B1 VH with Q1E, S16A, S17T, V20I, A24V, R38Q, Q43K, Q62E, E74T, S77D
VL: DIVMTQSPDSLAVSLGERATINCKASQSVVNNVVWYQQKPGQPPKLLIYYASNRYSGVPDRFSGSGSGTDFTLTISSLQAEDVAVYYCQQHYTSPLTFGPGTKVDIKR
notes: Full-length human IgG1/kappa chains; also called PSA3

- binding result [2]: binds
B5: Anti-PSA Design 5 (humanized clone 10) (antibody, V domains shown)
VH: B1 VH with Q1E, S16A, S17T, V20I, A24V, R38Q, Q43K, Q62E, E74T, S77D
VL: B1 VL with D70E
notes: Full-length human IgG1/kappa chains; also called PSA5

- binding result [4]: binds
B6: Anti-HEWL Design 6, scFv on yeast surface (scFv, V domains shown, not shown: large carriers; small tags and cut ends)
VH: EVQLVQSGAEVKKPGATVKISCKVSGYTFSTYWMEWVQQAPGKGLEWMGEVLPGSGSTYYAEKFQGRVTITADTSTDTAYMELSSLRSEDTAVYYCARGDGYFQHWGQGTLVTVSS
VL: EIVLTQSPDFQSVTPKEKVTITCRASQSISSNLHWYQQKPDQSPKLLIKYASQSFSGVPSRFSGSGSGTDFTLTINSLEAEDAATYYCHQSNSWPRTFGPGTKVDIK
notes: also called Des6 (scFv format)

- Kd [5]: 11 nM
B7: Anti-HEWL Design 1, human IgG1 (antibody, V domains shown)
VH: B6 VH
VL: DIQMTQSPSSLSASVGDRVTITCRASQSISSNLNWYQQKPGKAPKLLIYYASSLQSGVPSRFSGSGSGTDFTLTISSLQPEDFATYYCQQSNSWPRTFGPGTKVDIKR
notes: also called Des 1; Des1

- Kd [6]: 41.6 nM
B8: Anti-HEWL Design 1, human Fab (Fab, V domains shown)
VH: B6 VH
VL: B7 VL
notes: The Fab heavy chain ends in a His tag; also called hαHEWL; design 1 (Fab)

Source: patent US20250122311A1 (YEDA RESEARCH AND DEVELOPMENT, published 2025)
